Reference: US20190351049A1 (Regeneron, published 2019)

B1: H1H15237P2 (antibody, V domains shown)
VH: EVQLVESGGGLVQPGGSLRLSCAASGFTSNSYPMSWVRQAPGKGLEWVSGISGRGGNTYYADSVKGRFTISRDNSKNTLYLQMNSLRVEDTAVYYCAETGTAFDYWGQGTLVTVSS
VL: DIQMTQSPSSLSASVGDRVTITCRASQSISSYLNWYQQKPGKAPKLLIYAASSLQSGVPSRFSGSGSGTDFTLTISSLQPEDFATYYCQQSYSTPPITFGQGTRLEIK
B2: H1H15231P2 (antibody, V domains shown)
VH: QLQLQESGPGLVKPSETLSLTCTVSGGSISSNTYYWGWIRQPPGKGLEWIGTIYYTGNTYYKSSLKSRVTISVDTSRNQFSLKLTSVTAADTAVYYCARQFADLNYVDYWGQGTLVTVSS
VL: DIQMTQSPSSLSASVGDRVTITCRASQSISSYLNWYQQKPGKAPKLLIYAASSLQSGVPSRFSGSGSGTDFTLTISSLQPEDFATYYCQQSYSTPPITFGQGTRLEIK
B3: H1H15211P (antibody, V domains shown)
VH: EVQLVESGGGLVQPGGSLRLSCVVSGFTFSNYDMSWVRQAPGRGLEWVSAIRGSGFNTYYADSVKGRFTISRDNSKNTLYLQMNSLRAEDTAVYYCAKDGSIVSMDYWGQGTLVTVSS
VL: not shown
B4: H1H15188P (antibody, V domains shown)
VH: QVQLVQSGAEVKKPGSSVKVSCKASGGSFSVYAISWVRQAPGQGLEWMGGIIPIFGTANYAQKFQDRFTITTDESTSTAYMELSSLRSEDTAMYYCAREGDIVVLPAGKGGMDVWGQGTTVTVSS
VL: DIVMTQSPLSLPVTPGEPASISCRSSQSLLHGNGYNYLDWYLQKPGQSPQLLIYLVSHRASGVPDRFSGSGSGTDFTLKISRVEAEDVGVYYCMQALQSPWTFGQGTKVEIK
B5: H1H15208P (antibody, V domains shown)
VH: EVQLVESGGDLVQPGGSLRLSCTASGFTFSNYEMNWVRQAPEKGLDWVSFISSSGGAIYYADSVKGRFTISRDNAKNSLYLQMNSLRAEDSAIYFCARSDSGGNSRYWGQGTLVTVSS
VL: DIQMTQSPSSVSASVGDRVTVTCRASQDISNWLVWYQQKPGKAPKFLIYAASSLQSGVPSRFSGSGSGTDFTLTISSLQPEDFATYYCQQANSFPPTFGGGTKVEIK
B6: H1H15228P2 (antibody, V domains shown)
VH: EVQLVESGGGLVQPGGSLRLSCAVFGFTFSGYAMSWVRQAPGKGLEWVSAISGGGGSTYYTDSVKGRFTISRDNSKNTLYLQMNSLRAEDTAVYYCASYWNNGMDVWGQGTTVTVSS
VL: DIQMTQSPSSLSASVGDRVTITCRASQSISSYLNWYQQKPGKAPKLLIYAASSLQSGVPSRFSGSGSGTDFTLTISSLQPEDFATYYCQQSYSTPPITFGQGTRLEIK
B7: H1H15249P2 (antibody, V domains shown)
VH: QLQLQESGPGLVKPSETLSLTCTVSGGSISNNNYYWGWIRQPPGKGLDWIGSIYYSGNTYYNPSLKSRVTISVDTSKNQFSLKMSSVTATDTALYYCARQGADHNWVDPWGQGTLVTVSS
VL: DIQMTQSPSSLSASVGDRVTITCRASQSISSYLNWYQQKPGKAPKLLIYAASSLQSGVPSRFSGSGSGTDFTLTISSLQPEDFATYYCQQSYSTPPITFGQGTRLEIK
B8: H1H15203P (antibody, V domains shown)
VH: EVQLVESGGDLVQPGGSLRVSCAASGFTFSNYDMYWVRQAPGKGLEWVSVISGIGATTYYADSVKGRFTISRDNSKNTVFLQMNSLRAEDTAVYYCVKGGPIVATDYWGQGTLVTVSS
VL: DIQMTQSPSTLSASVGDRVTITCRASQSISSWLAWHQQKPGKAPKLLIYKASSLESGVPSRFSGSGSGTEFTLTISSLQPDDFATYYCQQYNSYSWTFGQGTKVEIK

target: T1, MERS RBD-hFc (MERS-CoV (isolate EMC/2012)); test: SPR Biacore, captured mAb, 25 C

In order of rising Kd:
1. B3  0.0775 nM
2. B4  0.0825 nM
3. B2  0.116 nM
4. B7  0.227 nM
5. B8  0.273 nM
6. B1  0.274 nM
7. B6  0.418 nM
8. B5  0.553 nM

In order of falling koff:
1. B5  0.000243 s⁻¹
2. B6  0.000185 s⁻¹
3. B4  0.000122 s⁻¹
4. B8  0.000121 s⁻¹
5. B1  0.00012 s⁻¹
6. B3  8.72e-05 s⁻¹
7. B7  7.91e-05 s⁻¹
8. B2  7.44e-05 s⁻¹

In order of rising kon:
1. B7  349000 M⁻¹ s⁻¹
2. B1  439000 M⁻¹ s⁻¹
3. B5  439000 M⁻¹ s⁻¹
4. B6  443000 M⁻¹ s⁻¹
5. B8  443000 M⁻¹ s⁻¹
6. B2  639000 M⁻¹ s⁻¹
7. B3  1.13e+06 M⁻¹ s⁻¹
8. B4  1.48e+06 M⁻¹ s⁻¹

In order of falling t1/2:
1. B2  2.58 h
2. B7  2.43 h
3. B3  2.22 h
4. B1  1.6 h
5. B4  1.58 h
6. B8  1.58 h
7. B6  1.05 h
8. B5  0.8 h

target: T1, MERS RBD-hFc; test: SPR Biacore, captured mAb, 37 C

In order of falling Kd:
1. B5  1.01 nM
2. B6  0.975 nM
3. B1  0.797 nM
4. B8  0.645 nM
5. B7  0.288 nM
6. B3  0.194 nM
7. B4  0.167 nM
8. B2  0.139 nM

In order of rising koff:
1. B2  9.19e-05 s⁻¹
2. B7  0.000127 s⁻¹
3. B3  0.00016 s⁻¹
4. B4  0.000265 s⁻¹
5. B8  0.000323 s⁻¹
6. B1  0.000409 s⁻¹
7. B6  0.000464 s⁻¹
8. B5  0.000531 s⁻¹

In order of falling kon:
1. B4  1.59e+06 M⁻¹ s⁻¹
2. B3  827000 M⁻¹ s⁻¹
3. B2  659000 M⁻¹ s⁻¹
4. B5  525000 M⁻¹ s⁻¹
5. B1  514000 M⁻¹ s⁻¹
6. B8  501000 M⁻¹ s⁻¹
7. B6  476000 M⁻¹ s⁻¹
8. B7  442000 M⁻¹ s⁻¹

In order of falling t1/2:
1. B2  2.1 h
2. B7  1.52 h
3. B3  1.2 h
4. B4  0.733 h
5. B8  0.6 h
6. B1  0.467 h
7. B6  0.417 h
8. B5  0.367 h
